IntAct's records for PubMed 18278053

B1: Integrin beta-1 (Gallus gallus (Chicken)), P07228 (parent)
chain: MAETNLTLLTWAGILCCLIWSGSAQQGGSDCIKANAKSCGECIQAGPNCGWCKKTDFLQEGEPTSARCDDLAALKSKGCPEQDIENPRGSKRVLEDREVTNRKIGAAEKLKPEAITQIQPQKLVLQLRVGEPQTFSLKFKRAEDYPIDLYYLMDLSYSMKDDLENVKSLGTALMREMEKITSDFRIGFGSFVEKTVMPYISTTPAKLRNPCTGDQNCTSPFSYKNVLSLTSEGNKFNELVGKQHISGNLDSPEGGFDAIMQVAVCGDQIGWRNVTRLLVFSTDAGFHFAGDGKLGGIVLPNDGKCHLENNMYTMSHYYDYPSIAHLVQKLSENNIQTIFAVTEEFQAVYKELKNLIPKSAVGTLSSNSSNVIQLIIDAYNSLSSEVILENSKLPKEVTISYKSYCKNGVNDTQEDGRKCSNISIGDEVRFEINVTANECPKKGQNETIKIKPLGFTEEVEIHLQFICDCLCQSEGEPNSPACHDGNGTFECGACRCNEGRIGRLCECSTDEVNSEDMDAYCRRENSTEICSNNGECICGQCVCKKRENTNEVYSGKYCECDNFNCDRSNGLICGGNGICKCRVCECFPNFTGSACDCSLDTTPCMAGNGQICNGRGTCECGTCNCTDPKFQGPTCEMCQTCLGVCAEHKDCVQCRAFEKGEKKETCSQECMHFNMTRVESRGKLPQPVHPDPLSHCKEKDVGDCWFYFTYSVNSNGEASVHVVETPECPSGPDIIPIVAGVVAGIVLIGLALLLIWKLLMIIHDRREFAKFEKEKMNAKWDTGENPIYKSAVTTVVNPKYEGK

Variants of: B1
Settings: with urp2_mouse Fermt3, Q8K1B8
urp2_mouse Fermt3, Q8K1B8, sequence (Q8K1B8 whole entry): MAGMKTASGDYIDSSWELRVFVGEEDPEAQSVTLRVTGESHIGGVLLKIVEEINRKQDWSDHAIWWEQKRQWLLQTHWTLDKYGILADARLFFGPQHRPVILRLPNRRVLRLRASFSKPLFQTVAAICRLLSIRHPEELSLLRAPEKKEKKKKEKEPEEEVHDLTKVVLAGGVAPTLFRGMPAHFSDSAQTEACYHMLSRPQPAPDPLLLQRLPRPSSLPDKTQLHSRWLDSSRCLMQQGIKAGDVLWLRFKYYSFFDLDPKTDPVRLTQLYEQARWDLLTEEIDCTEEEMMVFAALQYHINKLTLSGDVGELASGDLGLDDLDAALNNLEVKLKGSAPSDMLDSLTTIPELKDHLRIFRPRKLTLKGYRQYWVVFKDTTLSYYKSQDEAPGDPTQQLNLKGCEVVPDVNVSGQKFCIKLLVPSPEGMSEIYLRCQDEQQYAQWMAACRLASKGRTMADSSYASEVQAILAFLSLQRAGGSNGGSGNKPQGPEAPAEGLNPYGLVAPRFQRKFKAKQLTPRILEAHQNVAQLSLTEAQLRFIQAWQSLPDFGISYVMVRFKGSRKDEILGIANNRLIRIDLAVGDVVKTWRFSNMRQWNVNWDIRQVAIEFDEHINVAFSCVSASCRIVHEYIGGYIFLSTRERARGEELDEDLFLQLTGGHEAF

effect of a mutation on the interaction	Variant
decreasing interaction strength	W780A
decreasing interaction strength	Y788A
disrupting interaction strength	T793A;T794A
disrupting interaction strength	Y800A
